Laboratory results as given in PMC3156124.

Legend:
[1] = target: GEP100 (UniProt Q6DN90); experiment: anti-HA (GEP100) IP, anti-V5 (VEGFR2) blot; settings: reference: wild type VEGFR2-V5; sites Y951
[2] = target: GEP100 PH domain (UniProt Q6DN90); experiment: peptide dot-blot overlaid with GST-PH; settings: reference: non-phosphorylated Tyr951 peptide; sites Y951

Row | Substance | binding against the reference [1] | binding against the reference [2]
1 | VEGFR2 (from UniProt P35968) 951F | lost | –
2 | VEGFR2 Tyr951 peptide (from UniProt P35968) pY951 peptide | – | gained
